# Measurements taken from article PMC10397247.
# B1: 4H2642-AA (peptide)
# chain: DKIAALKAEIAALKAENAALEAEIAALKG
# B2: 4H3446-AA (peptide)
# chain: DKNAALEAKIAALKAKNAALEAKIAALKG
# B3: 4H3438-AA (peptide)
# chain: DKNAALEAKIAALKAKIAALKAKIAALKG
# Legend:
# Assay in all cases: two-hybrid library CCmax;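 note: natural log of median RNA to DNA barcode read ratio; higher means stronger binding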
# [1] = target: T1, 4H3343-AA; conditions: mean of both orientations
# T1 chain: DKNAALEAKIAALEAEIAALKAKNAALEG
# [2] = target: T2, 4H48-AA; conditions: mean of both orientations
# T2 chain: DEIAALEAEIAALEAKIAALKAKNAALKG
# [3] = target: T3, 4H717-AA; conditions: mean of both orientations
# T3 chain: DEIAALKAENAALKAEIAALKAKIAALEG
# [4] = target: T4, 4H3844-AA; conditions: mean of both orientations
# T4 chain: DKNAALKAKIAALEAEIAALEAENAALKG
# [5] = target: T5, 4H3427-AA; conditions: mean of both orientations
# T5 chain: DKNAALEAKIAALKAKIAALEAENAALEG
# [6] = target: T6, 4H906-AA; conditions: mean of both orientations
# T6 chain: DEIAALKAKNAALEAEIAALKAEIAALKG
# [7] = target: T7, 4H605-AA; conditions: mean of both orientations
# T7 chain: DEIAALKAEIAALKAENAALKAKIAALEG
# [8] = target: T8, 4H2944-AA; conditions: mean of both orientations
# T8 chain: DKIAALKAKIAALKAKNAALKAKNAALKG
# [9] = target: T9, 4H2642-AA
# T9 chain: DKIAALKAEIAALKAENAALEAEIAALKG
# [10] = target: T10, 4H335-AA; conditions: mean of both orientations
# T10 chain: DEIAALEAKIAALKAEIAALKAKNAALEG
# [11] = target: T11, 4H993-AA; conditions: mean of both orientations
# T11 chain: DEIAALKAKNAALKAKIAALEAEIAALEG
# [12] = target: T12, 4H2754-AA; conditions: mean of both orientations
# T12 chain: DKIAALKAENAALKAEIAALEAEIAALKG
# [13] = target: T13, 4H317-AA; conditions: mean of both orientations
# T13 chain: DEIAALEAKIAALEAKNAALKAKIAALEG
# [14] = target: T14, 4H3627-AA; conditions: mean of both orientations
# T14 chain: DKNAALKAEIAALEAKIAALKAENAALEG
# [15] = target: T15, 4H881-AA; conditions: mean of both orientations
# T15 chain: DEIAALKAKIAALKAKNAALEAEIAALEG
# [16] = target: T16, 4H3655-AA; conditions: mean of both orientations
# T16 chain: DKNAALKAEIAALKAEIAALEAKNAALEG
# [17] = target: T17, 4H678-AA; conditions: mean of both orientations
# T17 chain: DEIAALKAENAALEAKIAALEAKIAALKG
# [18] = target: T18, 4H454-AA; conditions: mean of both orientations
# T18 chain: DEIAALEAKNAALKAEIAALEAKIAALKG
# [19] = target: T19, 4H429-AA; conditions: mean of both orientations
# T19 chain: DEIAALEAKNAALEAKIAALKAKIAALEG
# [20] = target: T20, 4H2949-AA; conditions: mean of both orientations
# T20 chain: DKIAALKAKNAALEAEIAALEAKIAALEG
# [21] = target: T21, 4H342-AA; conditions: mean of both orientations
# T21 chain: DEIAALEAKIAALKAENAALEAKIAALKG
# [22] = target: T22, 4H566-AA; conditions: mean of both orientations
# T22 chain: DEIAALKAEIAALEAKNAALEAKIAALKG
# [23] = target: T23, 4H2837-AA; conditions: mean of both orientations
# T23 chain: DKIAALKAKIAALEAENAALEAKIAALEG
# [24] = target: T24, 4H794-AA; conditions: mean of both orientations
# T24 chain: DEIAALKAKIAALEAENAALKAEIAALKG
# [25] = target: T25, 4H3606-AA; conditions: mean of both orientations
# T25 chain: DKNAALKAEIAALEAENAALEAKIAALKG
# [26] = target: T26, 4H3921-AA; conditions: mean of both orientations
# T26 chain: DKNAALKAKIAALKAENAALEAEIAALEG
# [27] = target: T27, 4H2729-AA; conditions: mean of both orientations
# T27 chain: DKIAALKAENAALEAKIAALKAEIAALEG
# [28] = target: T28, 4H3112-AA; conditions: mean of both orientations
# T28 chain: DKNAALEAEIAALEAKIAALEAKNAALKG
# [29] = target: T29, 4H2883-AA; conditions: mean of both orientations
# T29 chain: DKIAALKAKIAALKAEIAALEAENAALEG
# [30] = target: T30, 4H780-AA; conditions: mean of both orientations
# T30 chain: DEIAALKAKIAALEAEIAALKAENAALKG
# [31] = target: T31, 4H971-AA; conditions: mean of both orientations
# T31 chain: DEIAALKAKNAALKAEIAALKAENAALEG
# [32] = target: T32, 4H656-AA; conditions: mean of both orientations
# T32 chain: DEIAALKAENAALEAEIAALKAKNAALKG
# [33] = target: T33, 4H478-AA; conditions: mean of both orientations
# T33 chain: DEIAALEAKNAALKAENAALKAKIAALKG
# [34] = target: T34, 4H3920-AA; conditions: mean of both orientations
# T34 chain: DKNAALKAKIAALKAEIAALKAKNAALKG
# [35] = target: T35, 4H675-AA; conditions: mean of both orientations
# T35 chain: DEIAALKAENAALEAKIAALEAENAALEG
# [36] = target: T36, 4H497-AA; conditions: mean of both orientations
# T36 chain: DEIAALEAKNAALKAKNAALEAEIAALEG
# [37] = target: T37, 4H3939-AA; conditions: mean of both orientations
# T37 chain: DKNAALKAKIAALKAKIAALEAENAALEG
# [38] = target: T38, 4H3628-AA; conditions: mean of both orientations
# T38 chain: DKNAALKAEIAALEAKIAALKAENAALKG
# [39] = target: T39, 4H3446-AA
# T39 chain: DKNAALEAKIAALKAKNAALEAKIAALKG
# [40] = target: T40, 4H391-AA; conditions: mean of both orientations
# T40 chain: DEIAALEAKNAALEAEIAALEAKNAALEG
# [41] = target: T41, 4H3591-AA; conditions: mean of both orientations
# T41 chain: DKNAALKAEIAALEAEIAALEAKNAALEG
# [42] = target: T42, 4H3709-AA; conditions: mean of both orientations
# T42 chain: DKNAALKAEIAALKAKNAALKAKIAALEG
# [43] = target: T43, 4H428-AA; conditions: mean of both orientations
# T43 chain: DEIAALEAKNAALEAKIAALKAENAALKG
# [44] = target: T44, 4H3666-AA; conditions: mean of both orientations
# T44 chain: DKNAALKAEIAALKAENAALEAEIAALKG
# [45] = target: 4H_GCN4; conditions: mean of both orientations
# Chain of 4H_GCN4 (chain, as listed by the source): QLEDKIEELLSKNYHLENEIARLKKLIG
# [46] = target: T45, 4H_BCR; conditions: mean of both orientations
# T45 chain: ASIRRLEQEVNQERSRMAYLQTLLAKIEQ
# [47] = target: T46, 4H56-AA; conditions: mean of both orientations
# T46 chain: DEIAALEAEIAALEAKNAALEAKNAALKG
# [48] = target: T47, 4H452-AA; conditions: mean of both orientations
# T47 chain: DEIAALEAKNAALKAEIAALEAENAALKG
# [49] = target: T48, 4H3438-AA
# T48 chain: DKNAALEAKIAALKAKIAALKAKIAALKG
# [50] = target: GCN2_T; conditions: mean of both orientations
# [51] = target: T49, 4H406-AA; conditions: mean of both orientations
# T49 chain: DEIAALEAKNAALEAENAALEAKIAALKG
# [52] = target: T50, 4H_APH; conditions: mean of both orientations
# T50 chain: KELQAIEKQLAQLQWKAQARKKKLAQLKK
# [53] = target: T51, 4H347-AA; conditions: mean of both orientations
# T51 chain: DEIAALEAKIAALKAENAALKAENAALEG
binder,measurement,setting,value
B1,interaction score,[1],-1.7
same,interaction score,[2],-0.661
same,interaction score,[3],-1.13
same,interaction score,[4],-1.28
same,interaction score,[5],-1.25
same,interaction score,[6],-1.72
same,interaction score,[7],1.36
same,interaction score,[8],0.299
same,interaction score,[9],2.07
same,interaction score,[10],-1.02
same,interaction score,[11],1.73
same,interaction score,[12],-1.08
same,interaction score,[13],1.06
same,interaction score,[14],-1.58
same,interaction score,[15],0.64
same,interaction score,[16],-1.24
same,interaction score,[17],-1.06
same,interaction score,[18],0.982
same,interaction score,[19],-0.542
same,interaction score,[20],-0.263
same,interaction score,[21],1.85
same,interaction score,[22],1.3
same,interaction score,[23],-1
same,interaction score,[24],0.96
same,interaction score,[25],-0.298
same,interaction score,[26],-1.11
same,interaction score,[27],-0.868
same,interaction score,[28],-1.11
same,interaction score,[29],-0.642
same,interaction score,[30],-1.24
B2,interaction score,[31],-1.14
same,interaction score,[32],-0.701
same,interaction score,[33],-1.66
same,interaction score,[34],-1.52
same,interaction score,[35],-0.821
same,interaction score,[36],-1.57
same,interaction score,[37],-1.83
same,interaction score,[38],-1.96
same,interaction score,[39],-0.619
same,interaction score,[40],0.726
same,interaction score,[41],-0.816
same,interaction score,[42],-0.0647
same,interaction score,[43],-0.892
same,interaction score,[44],0.18
B3,interaction score,[45],-1.68
same,interaction score,[46],-1.47
same,interaction score,[47],0.462
same,interaction score,[48],-0.716
same,interaction score,[49],0.922
same,interaction score,[50],-1
same,interaction score,[51],-1.51
same,interaction score,[52],-1.5
same,interaction score,[53],-0.916
